Source: PMC9262907, “Modulating mitofusins to control mitochondrial function and signaling” (Nature Communications, 2022)
Where no end group is shown, it is not given here.

T1: MFN2-HR2 domain (residues 678–757) (human, UniProt O95140 678-757)
T1 chain: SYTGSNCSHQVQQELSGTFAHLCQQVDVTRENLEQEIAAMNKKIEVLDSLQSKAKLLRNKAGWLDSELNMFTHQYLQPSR


Experiments:
[1] = biological target: T1, MFN2-HR2 domain (residues 678–757); assay: MST
[2] = biological target: the molecule itself; assay: native gel or EMSA; BN-PAGE of digitonin lysates of mitochondria isolated from MEFs, without GTP; blot with anti-MFN2

Kd [1] [µM]	Binder	stoichiometry N [2]
3	QIAEAVRLIMDSLHMAAR (also: 'Gly' in name not defined) [367–384Gly peptide]	
	mitofusin-2 (MFN2) of MEF mitochondria (natural protein, mouse (endogenous in MEFs), UniProt Q80U63 1-757, looked up, mitofusin-2 (MFN2), endogenous in mouse embryonic fibroblasts, detected with an anti-MFN2 antibody; source: endogenous, mitochondria isolated from MEFs, digitonin lysate) MSLLFSRCNSIVTVKKDKRHMAEVNASPLKHFVTAKKKINGIFEQLGAYIQESASFLEDTHRNTELDPVTTEEQVLDVKGYLSKVRGISEVLARRHMKVAFFGRTSNGKSTVINAMLWDKVLPSGIGHTTNCFLRVGGTDGHEAFLLTEGSEEKKSVKTVNQLAHALHQDEQLHAGSMVSVMWPNSKCPLLKDDLVLMDSPGIDVTTELDSWIDKFCLDADVFVLVANSESTLMQTEKQFFHKVSERLSRPNIFILNNRWDASASEPEYMEEVRRQHMERCTSFLVDELGVVDRAQAGDRIFFVSAKEVLSARVQKAQGMPEGGGALAEGFQVRMFEFQNFERQFEECISQSAVKTKFEQHTVRAKQIAEAVRLIMDSLHIAAQEQRVYCLEMREERQDRLRFIDKQLELLAQDYKLRIKQITEEVERQVSTAMAEEIRRLSVLVDEYQMDFHPSPVVLKVYKNELHRHIEEGLGRNLSDRCSTAIASSLQTMQQDMIDGLKPLLPVSMRNQIDMLVPRQCFSLSYDLNCDKLCADFQEDIEFHFSLGWTMLVNRFLGPKNSRRALLGYSDQVQRPLPLTPANPSMPPLPQSSLTQEELMVSMVTGLASLTSRTSMGILVVGGVVWKAVGWRLIALSFGLYGLLYVYERLTWTTKAKERAFKRQFVEYASEKLQLIISYTGSNCSHQVQQELSGTFAHLCQQVDITRDNLEQEIAAMNKKVEALDSLQSRAKLLRNKAGWLDSELNMFTHQYLQPSR	2
1.5	QDRLKFIDKQLELLAQDYKLR (also: 'Gly' in name not defined) [398–418Gly peptide]	
